Molecular target: GA733 antigen (37 kD protein expressed on colorectal carcinoma cells) (UniProt P16422)
Test: cell-based or functional assay

Sequence of UniProt P16422 (P16422 24-314): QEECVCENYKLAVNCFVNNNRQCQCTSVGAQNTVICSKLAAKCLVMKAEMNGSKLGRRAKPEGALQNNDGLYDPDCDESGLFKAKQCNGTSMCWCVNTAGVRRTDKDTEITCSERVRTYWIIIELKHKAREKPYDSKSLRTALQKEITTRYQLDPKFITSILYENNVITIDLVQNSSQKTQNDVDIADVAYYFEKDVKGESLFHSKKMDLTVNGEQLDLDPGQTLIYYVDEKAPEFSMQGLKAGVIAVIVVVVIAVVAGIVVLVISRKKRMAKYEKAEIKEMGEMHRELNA

- % Specific Lysis of CY13, effector:target 3.3:1: 10.3%
- % Specific Lysis of CY13, effector:target 10:1: 22.2%
- % Specific Lysis of CY13, effector:target 30:1: 38.7%
- % Specific Lysis of CY13, effector:target 90:1: 52.2%
- GM-CSF production by PBL (stimulator CY13) (pg/ml/5 × 10^5 PBL/24 hours): 1280
- GM-CSF production by PBL (stimulator GREM) (pg/ml/5 × 10^5 PBL/24 hours): 2980
Substance: chimeric receptor GA733-γ (scFv of MAb GA733 joined to the γ chain of the Fc receptor)

Source: patent US8211422
